Measurements from patent US20190241659A1.

Tests used:
[1] = molecular target: human PD-L1 on the cell surface (PD-L1 transfected HEK293, ES2, CHO PD-L1, engineered CHO cells) (human) (UniProt Q9NZQ7); test: flow cytometry on engineered CHO cells, AF647 anti-human IgG; apparent KD, one site specific binding fit
[2] = molecular target: human OX40 and human PD-L1 expressed together on engineered CHO cells (human) (UniProt P43489); test: as above
[3] = molecular target: human PD-L1 on the cell surface (PD-L1 transfected HEK293, ES2, CHO PD-L1, engineered CHO cells) (human) (UniProt Q9NZQ7); test: flow cytometry on engineered CHO cells; four-parameter sigmoidal fit, ECf
[4] = molecular target: human PD-L1 on the cell surface (PD-L1 transfected HEK293, ES2, CHO PD-L1, engineered CHO cells) (human) (UniProt Q9NZQ7); test: flow cytometry on engineered CHO cells; four-parameter sigmoidal fit, 50% occupancy

human PD-L1 on the cell surface (PD-L1 transfected HEK293, ES2, CHO PD-L1, engineered CHO cells) (human), sequence (Q9NZQ7 19-290, change not shown): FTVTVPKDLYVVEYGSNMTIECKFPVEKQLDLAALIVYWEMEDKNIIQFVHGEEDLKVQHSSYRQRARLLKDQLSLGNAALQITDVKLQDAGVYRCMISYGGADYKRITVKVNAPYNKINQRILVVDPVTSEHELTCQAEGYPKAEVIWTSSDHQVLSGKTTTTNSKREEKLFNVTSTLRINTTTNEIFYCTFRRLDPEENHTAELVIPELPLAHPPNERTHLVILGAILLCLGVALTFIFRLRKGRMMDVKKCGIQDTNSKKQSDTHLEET

Kd [1]: 0.088 nM | Kd [2]: 0.27 nM | concentration for 20% occupancy (EC20) [3]: 0.022 nM | concentration for 90% occupancy (EC90) [3]: 0.79 nM | EC50 [4]: 0.088 nM
Substance: MEDI5615 (PD-L1/OX40L BFP2 bispecific molecule, IgG4P)
